Measurements from article PMC4329186.

Target: human alpha-thrombin (human, UniProt P00734;P00734 328-363;364-622)
Assay: ctITP-NECEEM capillary electrophoresis; no metal ions; 400 nM thrombin; Tris-HCl sample buffer, no added metal ions, 30 min incubation; Tris and glycine reagents for CE; pH and temperature not given in the material

B1: 29mer thrombin aptamer with Ion Torrent primer handles and spacer (97 nt) (structured_DNA)
DNA: CCTCTCTATGGGCAGTCGGTGATAGTCCGTGGTAGGGCAGGTTGGGGTGACTTAAGGAGTTCAATATCTGAGTCGGAGACACGCAGGGATGAGATGG
B1: binds.
